First the molecules themselves.
B2: Med23 (other, mouse (murine ES cells), UniProt Q80YQ2 1-1367, looked up)
chain: METQLQSIFEEVVKTEIIEEAFPGMFMDTPEDEKTKLISCLAAFRQFWSGLSQESHEQCVQWIVKFIHGQHSPKRISFLYDCLAMAVETGLLPPRMVCESLINSDSLEWERTQLWALTFKLVRKIIGGVDYKGVRDLLKAILEKILTIPNTVSSAVVQQLLAAREVIAYILERNACLLPAYFAVTEIRKLYPEGKLPHWLLGNLVSDFVDTFRPTARINSICGRCSLLPVVNNSGAICNSWKLDPATLRFPLKGLLPYDKDLFEPQTALLRYVLEQPYSRDMVCNMLGLNKQHKQRCPVLEDQLVDLVVYAMERSETEEKFDDGGTSQLLWQHLSSQLIFFVLFQFASFPHMVLSLHQKLAGRGLIKGRDHLMWVLLQFISGSIQKNALADFLPVMKLFDLLYPEKECIPVPDINKPQSTHAFAMTCIWIHLNRKAQNGDSTLQIPIPHSLKLHHEFLQQSLRNKSLQMNDYKIALLCNAYSTNSECFTLPMGALVETIYGNGIMRVPLPGTSCLASASVTPLPMNLLDSLTVHAKMSLIHSIATRVIKLAHTKSSVALAPALVETYSRLLVYMEIESLGIKGFISQLLPTVFKSHAWGILHTLLEMFSHRMHHIQPHYRVQLLSHLHTLAAVAQTNQNQLHLCVESTALRLITALGSSEVQPQFTRFLNDPKTVLSAESEELNRALILTLARATHVTDFFTGSDSIQGTWCKDILQTIMNFTPHNWASHTLSCFPAPLQAFFKQNNVPQESRFNLKKNVEEEYRKWKSMTDENEIITQFSVQGFPPLFLCLLWKMLLETDHISQIGYKVLERIGARALVAHVRTFADFLVYEFSTSAGGQQLNKCIEILNDMVWKYNIVTLDRLILCLAMRSHEGNEAQVCYFIIQLLLLKPNDFRNRVSDFVKENSPEHWLQSDWHTKHMSYHKKYPEKLYFEGLAEQVDPPVPIQSPYLPIYFGNVCLRFLPVFDIVIHRFLELLPVSKSLETLLDHLGGLYKFHDRPVTYLYNTLHYYEMCLRNRDHLKRKLVHAIIGSLKDNRPQGWCLSDTYLKHAMNAREDNPWVPEDSYYCKLIGRLVDTMAGKSPGPFPNCDWRFNEFPNPAAHALHVTCVELMALAVPGKDVGNALLNVVLKSQPLVPRENITAWMNAIGLIITALPEPYWIVLHDRIVNVISSSSLTSETEWVGYPFRLFDFTACHQSYSEMSCSYTLALAHAVWHHSSIGQLSLIPKFLTEALLPVVKTEFQLLYVYHLVGPFLQRFQQERTRCMIEIGVAFYDMLLNVDQCSTHLNYMDPICDFLYHMKYMFTGDSVKEQVEKIICNLKPALKLRLRFITHISKMEPAVPPQALNSGSPAPQSNQVPASLPVTQ
notes: Endogenous protein in crosslinked chromatin or nuclear extract of V6.5 murine ES cells; also called mediator subunit Med23

In experiment [1] the target is B2. As to the kind of experiment: ChIP-western: IP of crosslinked, sheared murine ES cell chromatin with anti-Smc1a, western blot for Med23. The source says: (§1) FIG. 3 Mediator and cohesin interact. a, Mediator (Med23) is detected by western blot (WB) when crosslinked, sheared chromatin is subjected to immunoprecipitation with antibodies against mediator (Med1, Med12) or cohesin (Smc1a, Smc3). WCE, whole-cell extract. b, Cohesin (Smc1a, Smc3) and mediator (Med23) are detected by western blot after immunoprecipitation of uncrosslinked ES cell nuclear extracts (NE) with a Nipb1 antibody. c, Cohesin (Smc3) and Nipb1 co-purify with mediator. The input fractions and immunoprecipitated eluate (IP Eluate) were examined by western blot and silver staining. Molecular weight (MW) markers (kDa) are shown.
(§2) For ChIP-Western, same conditions as for ChIP-Seq were used. For co-immunoprecipitation, murine ES cells were harvested in cold PBS and extracted for 30 min at 4° C. in TNEN250 (50 mM Tris pH 7.5, 5 mM EDTA, 250 mM NaCl, 0.1% NP-40) with protease inhibitors. After centrifugation, supernatant was mixed to 2 volumes of TNENG (50 mM Tris pH 7.5, 5 mM EDTA, 100 mM NaCl, 0.1% NP-40, 10% glycerol).

For experiment [2], the target named is T1, Med1 (mouse (murine ES cells), UniProt Q925J9 1-1575).
T1 construct: Endogenous protein immunoprecipitated from crosslinked murine ES cell chromatin; also called CRSP1/TRAP220; mediator subunit Med1
T1 sequence (Q925J9 whole entry): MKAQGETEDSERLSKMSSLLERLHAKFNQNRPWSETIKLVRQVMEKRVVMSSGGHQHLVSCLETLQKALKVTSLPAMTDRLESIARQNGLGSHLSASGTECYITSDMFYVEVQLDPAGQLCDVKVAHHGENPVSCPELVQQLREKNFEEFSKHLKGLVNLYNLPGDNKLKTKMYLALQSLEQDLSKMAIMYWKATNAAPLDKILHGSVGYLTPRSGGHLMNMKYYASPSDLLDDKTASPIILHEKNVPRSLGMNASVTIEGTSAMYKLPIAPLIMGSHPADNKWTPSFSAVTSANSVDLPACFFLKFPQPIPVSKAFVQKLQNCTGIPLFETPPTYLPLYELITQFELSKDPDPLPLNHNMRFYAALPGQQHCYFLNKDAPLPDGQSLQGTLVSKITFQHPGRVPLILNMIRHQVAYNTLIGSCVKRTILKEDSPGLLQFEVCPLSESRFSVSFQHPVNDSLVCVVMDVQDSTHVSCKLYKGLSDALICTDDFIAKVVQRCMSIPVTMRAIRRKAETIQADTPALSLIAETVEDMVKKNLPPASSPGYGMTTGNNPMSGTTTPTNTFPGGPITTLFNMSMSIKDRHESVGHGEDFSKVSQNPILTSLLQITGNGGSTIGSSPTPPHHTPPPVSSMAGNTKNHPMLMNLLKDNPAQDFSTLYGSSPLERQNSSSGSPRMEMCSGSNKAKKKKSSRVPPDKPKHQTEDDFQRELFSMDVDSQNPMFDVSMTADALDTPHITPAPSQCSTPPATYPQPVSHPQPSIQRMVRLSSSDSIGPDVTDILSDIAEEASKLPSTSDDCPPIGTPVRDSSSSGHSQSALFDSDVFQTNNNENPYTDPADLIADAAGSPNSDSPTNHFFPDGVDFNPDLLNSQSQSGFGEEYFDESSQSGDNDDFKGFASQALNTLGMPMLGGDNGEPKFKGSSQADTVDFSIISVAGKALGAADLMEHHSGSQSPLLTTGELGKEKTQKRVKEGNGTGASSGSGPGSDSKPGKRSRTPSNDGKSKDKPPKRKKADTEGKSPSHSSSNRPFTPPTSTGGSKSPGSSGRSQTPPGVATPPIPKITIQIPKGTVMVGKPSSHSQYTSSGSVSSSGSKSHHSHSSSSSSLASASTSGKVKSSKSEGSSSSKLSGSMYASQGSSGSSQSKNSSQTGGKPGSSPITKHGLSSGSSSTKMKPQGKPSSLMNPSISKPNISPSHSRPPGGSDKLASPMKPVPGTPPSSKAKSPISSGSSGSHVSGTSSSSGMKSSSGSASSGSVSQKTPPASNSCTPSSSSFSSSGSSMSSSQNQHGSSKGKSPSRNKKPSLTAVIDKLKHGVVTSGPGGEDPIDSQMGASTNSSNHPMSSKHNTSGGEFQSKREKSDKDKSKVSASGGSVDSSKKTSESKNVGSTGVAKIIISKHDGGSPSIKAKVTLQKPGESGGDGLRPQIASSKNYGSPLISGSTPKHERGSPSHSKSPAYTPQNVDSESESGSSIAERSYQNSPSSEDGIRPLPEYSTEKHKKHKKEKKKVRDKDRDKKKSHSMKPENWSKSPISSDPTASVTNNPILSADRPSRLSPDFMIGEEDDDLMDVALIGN
As to the kind of experiment: ChIP-western: IP of crosslinked, sheared murine ES cell chromatin with anti-Med1, western blot for Med23.
Excerpt: as §1, §2
For orientation: Immunoblotting shows a protein as a band on a membrane.

Experiment [3] concerns the target T2, Med12 (mouse (murine ES cells), UniProt A2AGH6 1-2190).
T2 construct: Endogenous protein immunoprecipitated from crosslinked murine ES cell chromatin; also called mediator subunit Med12
As to the kind of experiment: ChIP-western: IP of crosslinked, sheared murine ES cell chromatin with anti-Med12, western blot for Med23.
Excerpt: as §1, §2

Experiment [4] addresses B2. In words: ChIP-western: IP of crosslinked, sheared murine ES cell chromatin with anti-Smc3, western blot for Med23.
Excerpt: as §1, §2

T2 sequence (A2AGH6 whole entry): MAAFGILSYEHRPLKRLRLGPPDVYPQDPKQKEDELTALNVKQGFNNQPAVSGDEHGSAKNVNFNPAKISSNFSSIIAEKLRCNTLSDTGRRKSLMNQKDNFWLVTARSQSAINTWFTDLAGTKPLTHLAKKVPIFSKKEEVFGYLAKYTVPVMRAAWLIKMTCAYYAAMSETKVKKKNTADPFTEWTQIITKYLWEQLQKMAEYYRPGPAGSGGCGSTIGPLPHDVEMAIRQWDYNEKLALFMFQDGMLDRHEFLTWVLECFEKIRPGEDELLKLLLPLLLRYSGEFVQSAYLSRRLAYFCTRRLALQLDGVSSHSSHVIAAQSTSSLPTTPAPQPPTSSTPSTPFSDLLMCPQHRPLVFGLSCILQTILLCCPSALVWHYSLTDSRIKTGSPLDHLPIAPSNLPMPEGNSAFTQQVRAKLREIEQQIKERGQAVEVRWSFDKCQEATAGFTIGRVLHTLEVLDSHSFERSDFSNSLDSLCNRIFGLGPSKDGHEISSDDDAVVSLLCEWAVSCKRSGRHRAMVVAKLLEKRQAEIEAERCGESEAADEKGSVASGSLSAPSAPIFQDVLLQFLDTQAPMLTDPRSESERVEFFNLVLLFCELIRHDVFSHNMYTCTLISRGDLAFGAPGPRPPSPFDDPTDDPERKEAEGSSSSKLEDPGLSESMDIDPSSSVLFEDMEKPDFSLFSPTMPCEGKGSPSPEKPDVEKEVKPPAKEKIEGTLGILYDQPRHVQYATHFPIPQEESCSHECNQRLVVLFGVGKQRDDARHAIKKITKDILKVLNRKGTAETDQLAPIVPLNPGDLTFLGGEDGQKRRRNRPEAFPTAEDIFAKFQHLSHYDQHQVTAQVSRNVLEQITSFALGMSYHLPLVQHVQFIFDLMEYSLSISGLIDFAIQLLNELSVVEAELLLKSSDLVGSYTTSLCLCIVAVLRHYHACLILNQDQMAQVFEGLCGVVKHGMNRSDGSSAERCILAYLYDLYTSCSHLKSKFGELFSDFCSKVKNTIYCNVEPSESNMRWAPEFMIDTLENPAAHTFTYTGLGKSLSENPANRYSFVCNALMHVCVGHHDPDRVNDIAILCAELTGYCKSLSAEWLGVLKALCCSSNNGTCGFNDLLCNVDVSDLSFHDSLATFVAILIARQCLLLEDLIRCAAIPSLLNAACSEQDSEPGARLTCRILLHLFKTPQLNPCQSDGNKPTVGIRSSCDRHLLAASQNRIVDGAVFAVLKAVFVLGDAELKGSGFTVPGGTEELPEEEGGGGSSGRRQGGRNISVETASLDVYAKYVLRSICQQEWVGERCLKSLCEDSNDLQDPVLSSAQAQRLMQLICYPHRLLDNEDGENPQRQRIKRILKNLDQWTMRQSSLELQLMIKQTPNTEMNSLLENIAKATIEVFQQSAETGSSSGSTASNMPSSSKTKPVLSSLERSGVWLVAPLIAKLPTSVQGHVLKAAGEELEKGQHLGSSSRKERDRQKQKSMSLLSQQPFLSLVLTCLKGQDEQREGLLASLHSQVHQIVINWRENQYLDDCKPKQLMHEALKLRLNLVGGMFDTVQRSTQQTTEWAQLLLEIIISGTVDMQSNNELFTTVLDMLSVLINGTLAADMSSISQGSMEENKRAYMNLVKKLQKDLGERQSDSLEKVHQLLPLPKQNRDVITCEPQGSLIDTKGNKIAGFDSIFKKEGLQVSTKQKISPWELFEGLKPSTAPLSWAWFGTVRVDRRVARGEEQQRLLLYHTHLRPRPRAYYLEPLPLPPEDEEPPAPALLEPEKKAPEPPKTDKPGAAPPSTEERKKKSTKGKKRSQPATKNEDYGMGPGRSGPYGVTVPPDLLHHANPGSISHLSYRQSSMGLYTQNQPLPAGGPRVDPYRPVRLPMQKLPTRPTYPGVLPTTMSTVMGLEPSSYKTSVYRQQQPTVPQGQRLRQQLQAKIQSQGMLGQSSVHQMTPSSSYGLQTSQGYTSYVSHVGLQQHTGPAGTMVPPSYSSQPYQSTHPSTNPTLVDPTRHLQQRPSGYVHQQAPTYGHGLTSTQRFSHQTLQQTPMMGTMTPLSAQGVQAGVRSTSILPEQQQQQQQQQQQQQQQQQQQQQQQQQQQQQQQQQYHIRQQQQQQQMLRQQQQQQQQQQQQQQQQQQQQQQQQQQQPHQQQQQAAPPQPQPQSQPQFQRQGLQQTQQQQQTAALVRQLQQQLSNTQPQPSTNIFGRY

B1: Smc1a (other, mouse (murine ES cells), UniProt Q9CU62 1-1233, looked up)
chain: MGFLKLIEIENFKSYKGRQIIGPFQRFTAIIGPNGSGKSNLMDAISFVLGEKTSNLRVKTLRDLIHGAPVGKPAANRAFVSMVYSEEGAEDRTFARVIVGGSSEYKINNKVVQLHEYSEELEKLGILIKARNFLVFQGAVESIAMKNPKERTALFEEISRSGELAQEYDKRKKEMVKAEEDTQFNYHRKKNIAAERKEAKQEKEEADRYQRLKDEVVRAQVQLQLFKLYHNEVEIEKLNKELASKNKEIEKDKKRMDKVEDELKEKKKELGKMMREQQQIEKEIKEKDSELNQKRPQYIKAKENTSHKIKKLEAAKKSLQNAQKHYKKRKGDMDELEKEMLSVEKARQEFEERMEEESQSQGRDLTLEENQVKKYHRLKEEASKRAATLAQELEKFNRDQKADQDRLDLEERKKVETEAKIKQKLREIEENQKRIEKLEEYITTSKQSLEEQKKLEGELTEEVEMAKRRIDEINKELNQVMEQLGDARIDRQESSRQQRKAEIMESIKRLYPGSVYGRLIDLCQPTQKKYQIAVTKVLGKNMDAIIVDSEKTGRDCIQYIKEQRGEPETFLPLDYLEVKPTDEKLRELKGAKLVIDVIRYEPPHIKKALQYACGNALVCDNVEDARRIAFGGHQRHKTVALDGTLFQKSGVISGGASDLKAKARRWDEKAVDKLKEKKERLTEELKEQMKAKRKEAELRQVQSQAHGLQMRLKYSQSDLEQTKTRHLALNLQEKSKLESELANFGPRINDIKRIIQSREREMKDLKEKMNQVEDEVFEEFCREIGVRNIREFEEEKVKRQNEIAKKRLEFENQKTRLGIQLDFEKNQLKEDQDKVHMWEQTVKKDENEIEKLKKEEQRHMKIIDETMAQLQDLKNQHLAKKSEVNDKNHEMEEIRKKLGGANKEMTHLQKEVTAIETKLEQKRSDRHNLLQACKMQDIKLPLSKGTMDDISQEEGSSQGEESVSGSQRTSSIYAREALIEIDYGDLCEDLKDAQAEEEIKQEMNTLQQKLNEQQSVLQRIAAPNMKAMEKLESVRDKFQETSDEFEAARKRAKKAKQAFEQIKKERFDRFNACFESVATNIDEIYKALSRNSSAQAFLGPENPEEPYLDGINYNCVAPGKRFRPMDNLSGGEKTVAALALLFAIHSYKPAPFFVLDEIDAALDNTNIGKVANYIKEQSTCNFQAIVISLKEEFYTKAESLIGVYPEQGDCVISKVLTFDLTKYPDANPNPNEQ
notes: Endogenous protein of murine ES cells; also called cohesin core complex protein Smc1a
In the case of B1, the binding result in experiment [1] is given as “binds”.

As for B2, the binding result in experiment [2] and in experiment [3] was “binds” throughout.

B3: Smc3 (other, mouse (murine ES cells), UniProt Q9CW03 1-1217, looked up)
chain: MYIKQVIIQGFRSYRDQTIVDPFSSKHNVIVGRNGSGKSNFFYAIQFVLSDEFSHLRPEQRLALLHEGTGPRVISAFVEIIFDNSDNRLPIDKEEVSLRRVIGAKKDQYFLDKKMVTKNDVMNLLESAGFSRSNPYYIVKQGKINQMATAPDSQRLKLLREVAGTRVYDERKEESISLMKETEGKREKINELLKYIEERLHTLEEEKEELAQYQKWDKMRRALEYTIYNQELNETRAKLDELSAKRETSGEKSRQLRDAQQDARDKMEDIERQVRELKTKISAMKEEKEQLSAERQEQIKQRTKLELKAKDLQDELAGNSEQRKRLLKERQKLLEKIEEKQKELAETEPKFNSVKEKEERGIARLAQATQERTDLYAKQGRGSQFTSKEERDKWIKKELKSLDQAINDKKRQIAAIHKDLEDTEANKEKNLEQYNKLDQDLNEVKARVEELDRKYYEVKNKKDELQSERNYLWREENAEQQALAAKREDLEKKQQLLRAATGKAILNGIDSINKVLEHFRRKGINQHVQNGYHGIVMNNFECEPAFYTCVEVTAGNRLFYHIVDSDEVSTKILMEFNKMNLPGEVTFLPLNKLDVRDTAYPETNDAIPMISKLRYNPRFDKAFKHVFGKTLICRSMEVSTQLARAFTMDCITLEGDQVSHRGALTGGYYDTRKSRLELQKDVRKAEEELGELEAKLNENLRRNIERINNEIDQLMNQMQQIETQQRKFKASRDSILSEMKMLKEKRQQSEKTFMPKQRSLQSLEASLHAMESTRESLKAELGTDLLSQLSLEDQKRVDALNDEIRQLQQENRQLLNERIKLEGIITRVETYLNENLRKRLDQVEQELNELRETEGGTVLTATTSELEAINKRVKDTMARSEDLDNSIDKTEAGIKELQKSMERWKNMEKEHMDAINHDTKELEKMTNRQGMLLKKKEECMKKIRELGSLPQEAFEKYQTLSLKQLFRKLEQCNTELKKYSHVNKKALDQFVNFSEQKEKLIKRQEELDRGYKSIMELMNVLELRKYEAIQLTFKQVSKNFSEVFQKLVPGGKATLVMKKGDVEGSQSQDEGEGSGESERGSGSQSSVPSVDQFTGVGIRVSFTGKQGEMREMQQLSGGQKSLVALALIFAIQKCDPAPFYLFDEIDQALDAQHRKAVSDMIMELAVHAQFITTTFRPELLESADKFYGVKFRNKVSHIDVITAEMAKDFVEDDTTHG
notes: Endogenous protein of murine ES cells; also called cohesin core complex protein Smc3
As for B3, the binding result in experiment [4] is given as “binds”.

Source of the values: patent publication US20130109737A1 (published 2013).
